Data as given in patent US20190309044A1, “POLYPEPTIDES AND USES THEREOF AS A DRUG FOR TREATMENT OF AUTOIMMUNE DISORDERS” (Compugen Ltd., priority 2017, published 2019).

Tested on: male DBA/1OlaHsd mice
Assay: CIA, early stage treatment from day 18
Format: in vivo, mouse
Conditions: 3.3 mg/kg
Description: The aim of this study was to estimate the effect of C1ORF32-P8-V1-ECD-mFc (SEQ ID NO:42) on disease development in a type II Collagen induced arthritis (CIA) mouse model upon administration at early stage of disease; i.e., when specific and predictive markers for RA development are present in the serum, but before onset of clinical symptoms.
In the CIA model, arthritis is induced by immunization with type II collagen in CFA on day 1 which is followed by boosting with type II collagen in CFA on day 21. Antibodies against both CII and cyclic citrullinated peptide (CCPs) appear early after immunization, before joint swelling is observed.
To evaluate the effect of early stage treatment with C1ORF32-P8-V1-ECD-mFc (SEQ ID NO:42) on disease development treatment started on day 18 and was given IP injection, Q2D to mice from day 18 until day 32.
Male DBA/101aHsd mice weighing 16-25 grams (mean 22 g) on day 18 of the study were obtained from Harlan, Inc., Indianapolis, Ind. Mice (10/group) were anaesthetized with Isoflurane, shaved at the base of the tail, and injected intradermally with 150 μl of Freund's Complete Adjuvant (Sigma) containing bovine type II collagen (Elastin Products, Owensville, Mo.) (2 mg/ml) at the base of the tail on day 0 and again on day 21. On study day 18, mice were randomized by body weight into treatment groups. […]

B1: C1ORF32 ECD-Fc (SEQ ID NO:42): human-mouse fusion protein: human C1ORF32 ECD fused to mouse immunoglobulin Fc (SEQ ID NO:42) (protein)
chain: LQVTVPDKKKVAMLFQPTVLRCHFSTSSHQPAVVQWKFKSYCQDRMGESLGMSSTRAQSLSKRNLEWDPYLDCLDSRRTVRVVASKQGSTVTLGDFYRGREITIVHDADLQIGKLMWGDSGLYYCIITTPDDLEGKNEDSVELLVLGRTGLLADLLPSFAVEIMGSENLYFQGSGEPRGPTIKPCPPCKCPAPNLLGGPSVFIFPPKIKDVLMISLSPIVTCVVVDVSEDDPDVQISWFVNNVEVHTAQTQTHREDYNSTLRVVSALPIQHQDWMSGKEFKCKVNNKDLPAPIERTISKPKGSVRAPQVYVLPPPEEEMTKKQVTLTCMVTDFMPEDIYVEWTNNGKTELNYKNTEPVLDSDGSYFMYSKLRVEKKNWVERNSYSCSVVHEGLHNHHTTKSFSRTPGK
modifications: Fusion protein human C1ORF32-ECD fused to mouse IgG2a Fc
In the case of B1, the “effect of lower dose” value is reported as “No effect”.
